In one assay the target is T1, 重组人PD-L2蛋白 (human, UniProt Q9BQ51 20-219).
T1 construct: The words 携带hFc标签的 stand before the first protein of the list; also called Acrobiosystem Cat.PD2-H5251
T1 sequence (looked up): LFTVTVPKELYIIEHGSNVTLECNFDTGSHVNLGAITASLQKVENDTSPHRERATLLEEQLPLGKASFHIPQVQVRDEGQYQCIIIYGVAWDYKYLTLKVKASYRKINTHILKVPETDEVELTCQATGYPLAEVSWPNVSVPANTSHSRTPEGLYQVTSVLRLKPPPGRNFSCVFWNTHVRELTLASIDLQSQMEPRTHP
The assay can be described thus: ELISA, protein coated at 1μg/ml. (An ELISA detects its analyte on a solid surface through an enzyme-linked reagent.)

The next assay has as its target T2, 重组人PD-1蛋白(自产) (human, UniProt Q15116 25-167).
T2 construct: The words 携带hFc标签的 stand before the first protein of the list
The assay is described as follows: ELISA, protein coated at 1μg/ml.

A further assay deals with T3, 重组人ICOS蛋白 (human, UniProt Q9Y6W8 21-140).
T3 construct: The words 携带hFc标签的 stand before the first protein of the list; also called Acrobiosystem Cat.ICS-H5250
T3 sequence (looked up): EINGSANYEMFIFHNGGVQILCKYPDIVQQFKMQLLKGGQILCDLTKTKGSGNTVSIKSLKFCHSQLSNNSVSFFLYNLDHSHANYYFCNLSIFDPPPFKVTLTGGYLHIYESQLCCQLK
The assay can be described thus: ELISA, protein coated at 1μg/ml.

The target in a further assay is T4, 重组人ICOSLG蛋白 (human, UniProt O75144 19-258).
T4 construct: The words 携带hFc标签的 stand before the first protein of the list; also called Acrobiosystem Cat.B72-H5254
T4 sequence (looked up): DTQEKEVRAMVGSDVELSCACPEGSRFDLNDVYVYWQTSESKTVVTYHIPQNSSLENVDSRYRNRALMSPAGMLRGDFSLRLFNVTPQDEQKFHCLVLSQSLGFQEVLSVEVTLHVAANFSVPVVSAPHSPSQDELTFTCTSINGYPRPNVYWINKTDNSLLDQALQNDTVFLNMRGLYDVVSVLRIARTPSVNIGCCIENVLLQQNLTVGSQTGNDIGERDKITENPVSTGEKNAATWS
The assay can be described thus: ELISA, protein coated at 1μg/ml.

Another assay deals with T5, 重组人CD276蛋白 (human, UniProt Q5ZPR3-2 29-245).
T5 construct: The words 携带hFc标签的 stand before the first protein of the list; also called B7-H3; Acrobiosystem Cat.B73-H5253
T5 sequence (looked up): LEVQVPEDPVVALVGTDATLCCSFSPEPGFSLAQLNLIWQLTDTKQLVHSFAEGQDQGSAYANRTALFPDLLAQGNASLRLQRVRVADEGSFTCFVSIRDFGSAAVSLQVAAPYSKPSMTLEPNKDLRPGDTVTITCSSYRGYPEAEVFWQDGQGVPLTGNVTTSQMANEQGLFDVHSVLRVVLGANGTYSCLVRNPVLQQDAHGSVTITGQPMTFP
The assay can be described thus: ELISA, protein coated at 1μg/ml.

A further assay concerns the target T6, 重组人CD86蛋白 (human, UniProt P42081 26-247).
T6 construct: The words 携带hFc标签的 stand before the first protein of the list; also called Acrobiosystem Cat.CD6-H5257
T6 sequence (looked up): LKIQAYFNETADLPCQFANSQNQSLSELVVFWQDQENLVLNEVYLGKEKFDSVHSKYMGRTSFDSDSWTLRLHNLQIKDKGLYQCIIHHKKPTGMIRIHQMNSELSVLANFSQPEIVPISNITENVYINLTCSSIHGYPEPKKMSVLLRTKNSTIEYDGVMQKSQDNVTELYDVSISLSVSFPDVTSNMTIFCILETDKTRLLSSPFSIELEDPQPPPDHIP
The assay is described as follows: ELISA, protein coated at 1μg/ml.

The target in another assay is T7, 重组人CD28蛋白 (human, UniProt P10747 19-152).
T7 construct: The words 携带hFc标签的 stand before the first protein of the list; also called Acrobiosystem Cat.CD8-H525a
The assay is described as follows: ELISA, protein coated at 1μg/ml.

In a further assay the target is T8, 重组人CTLA-4蛋白 (human, UniProt P16410 37-162).
T8 construct: The words 携带hFc标签的 stand before the first protein of the list; also called Acrobiosystem Cat.CT4-H5255
T8 sequence (P16410 37-162): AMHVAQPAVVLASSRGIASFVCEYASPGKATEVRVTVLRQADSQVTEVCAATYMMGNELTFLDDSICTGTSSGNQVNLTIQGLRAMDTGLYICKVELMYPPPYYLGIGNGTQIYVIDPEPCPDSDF
The assay is described as follows: ELISA, protein coated at 1μg/ml.

The target of another assay is T9, 小鼠PD-L1 (on CHO cells) (mouse, UniProt Q9EP73 19-290).
T9 construct: whole, on cells; also called CHO-mPD-L1稳定细胞株; 稳定表达全长小鼠PD-L1的CHO
T9 sequence (Q9EP73 19-290): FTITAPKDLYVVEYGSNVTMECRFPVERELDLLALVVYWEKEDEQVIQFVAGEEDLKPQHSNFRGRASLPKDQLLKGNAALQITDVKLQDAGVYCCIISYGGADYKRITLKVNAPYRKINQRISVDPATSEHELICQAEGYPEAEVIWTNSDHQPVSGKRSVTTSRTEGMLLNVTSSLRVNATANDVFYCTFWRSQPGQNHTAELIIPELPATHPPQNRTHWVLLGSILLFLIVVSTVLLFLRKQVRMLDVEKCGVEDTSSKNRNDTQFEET
The assay can be described thus: flow cytometry on CHO-mPD-L1 cells. Background: A flow cytometer gives signals particle by particle.

The target in a further assay is T10, 人PD-L1 (on cells) (human, UniProt Q9NZQ7 19-290).
T10 construct: whole, on cells; One molecule for human PD-L1 on CHO-hPD-L1, on IFNγ-stimulated A375 and on CHO-hPD-L1-OKT3 cells; the cell is named under assay; also called CHO-hPD-L1稳定细胞株; 稳定表达人PD-L1的CHO
T10 sequence (Q9NZQ7 19-290): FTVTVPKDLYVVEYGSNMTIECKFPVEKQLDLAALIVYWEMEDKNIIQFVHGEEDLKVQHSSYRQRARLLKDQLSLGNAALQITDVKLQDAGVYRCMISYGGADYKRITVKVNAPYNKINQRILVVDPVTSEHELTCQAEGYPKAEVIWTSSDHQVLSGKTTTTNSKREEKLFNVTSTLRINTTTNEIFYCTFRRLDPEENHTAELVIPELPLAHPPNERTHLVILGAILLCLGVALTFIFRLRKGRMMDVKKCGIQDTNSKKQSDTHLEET
The assay is described as follows: flow cytometry on IFNγ-stimulated A375 cells.

For a further assay, the target named is T11, hPD-L1-his (human, UniProt Q9NZQ7 19-238).
T11 construct: extracellular domain; also called 携带his标签的人PD-L1胞外区重组蛋白; not shown: his tag
T11 sequence (Q9NZQ7 19-238): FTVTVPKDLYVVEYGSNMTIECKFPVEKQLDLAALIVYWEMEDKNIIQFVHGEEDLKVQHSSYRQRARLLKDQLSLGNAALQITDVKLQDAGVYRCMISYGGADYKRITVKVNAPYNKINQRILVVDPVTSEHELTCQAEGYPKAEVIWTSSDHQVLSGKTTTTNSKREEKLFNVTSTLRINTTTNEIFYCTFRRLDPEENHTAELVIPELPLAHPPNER
The assay is described as follows: BLI (ForteBIO), hPD-L1-his on anti-Penta-HIS sensor. For orientation: Biolayer interferometry detects binding as a change in optical thickness at a sensor tip.

Changes are numbered by the printed parent chain.

T2 sequence (Q15116 25-167): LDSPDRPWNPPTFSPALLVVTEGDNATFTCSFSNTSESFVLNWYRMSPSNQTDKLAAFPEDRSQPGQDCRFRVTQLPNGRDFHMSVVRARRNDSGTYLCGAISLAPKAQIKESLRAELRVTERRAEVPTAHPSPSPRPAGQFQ

B1: 176L6H5 (antibody, V domains shown)
VH: EVQLQESGPGLVKPSETLSLTCAVYGDSITSGYWNWIRKPPGKGLEYMGYISYTGSTYQNPSLKSRITFSRDTSKNQYYLKLSSVTAADTATYYCARSRAWIRTYFDYWGQGTLVTVSS
VL: EIVLTQSPDFQSVTPKEKVTITCSVSSSISSSNLHWYQQKPDQSPKLLIYGTSNLASGVPSRFSGSGSGTDFTLTINSLEAEDAATYYCQQWSSYPLTFGQGTKLEIKR
notes: Whole humanized mAb expressed in 293 cells; detected with anti-human IgG; also called 抗人PD-L1人源化抗体176L6H5
As for B1, the binding result in the assay with 重组人PD-L2蛋白, in the assay with 重组人PD-1蛋白(自产), with 重组人ICOS蛋白, in the assay with 重组人ICOSLG蛋白, in the assay with 重组人CD276蛋白 and with 重组人CD86蛋白 was “no binding (tested: 10μg/ml)” each time. Moreover, the values for the binding result with 重组人CD28蛋白, with 重组人CTLA-4蛋白 and in the assay with 小鼠PD-L1 (on CHO cells) were “no binding (tested: 10μg/ml)”, “no binding (tested: 10μg/ml)” and “no binding (tested: 20μg/ml)”, respectively. In addition, the EC50 with 人PD-L1 (on cells) was ~200 pM. In the assay with hPD-L1-his, this molecule displayed a Kd of 30.2 pM.

B2: 176L4H2 (antibody, V domains shown)
VH: B1 VH with E1Q, G44K, M48I, F69M, T92V
VL: DIQMTQSPSSLSASVGDRVTITCSVSSSISSSNLHWYQQKPGKAPKPWIYGTSNLASGVPSRFSGSGSGTDYTLTISSLQPEDFATYYCQQWSSYPLTFGQGTKLEIKR
notes: Whole humanized mAb expressed in 293 cells; detected with anti-human IgG; also called 抗人PD-L1人源化抗体176L4H2
On to B2, for which the binding result with 重组人PD-L2蛋白, with 重组人PD-1蛋白(自产), with 重组人ICOS蛋白, with 重组人ICOSLG蛋白, in the assay with 重组人CD276蛋白 and with 重组人CD86蛋白 was “no binding (tested: 10μg/ml)” each time. Also, the figures for the binding result in the assay with 重组人CD28蛋白, with 重组人CTLA-4蛋白 and with 小鼠PD-L1 (on CHO cells) were “no binding (tested: 10μg/ml)”, “no binding (tested: 10μg/ml)” and “no binding (tested: 20μg/ml)”, respectively. Moreover, the EC50 in the assay with 人PD-L1 (on cells) was ~200 pM. For the same molecule, in the assay with hPD-L1-his, the Kd was determined as 84.8 pM.

B3: 176L4H3 (antibody, V domains shown)
VH: B1 VH with E1Q, G44K, M48I, T92V
VL: B2 VL
notes: Whole humanized mAb expressed in 293 cells; detected with anti-human IgG; also called 抗人PD-L1人源化抗体176L4H3
Turning to B3, the binding result in the assay with 重组人PD-L2蛋白, with 重组人PD-1蛋白(自产), in the assay with 重组人ICOS蛋白, in the assay with 重组人ICOSLG蛋白, with 重组人CD276蛋白 and with 重组人CD86蛋白 was “no binding (tested: 10μg/ml)” throughout. Further, the figures for the binding result with 重组人CD28蛋白, with 重组人CTLA-4蛋白 and with 小鼠PD-L1 (on CHO cells) were “no binding (tested: 10μg/ml)”, “no binding (tested: 10μg/ml)” and “no binding (tested: 20μg/ml)”, respectively. Also, in the assay with 人PD-L1 (on cells), the EC50 is ~200 pM. Further, binding with hPD-L1-his was put at a Kd of 80 pM.

B4: 176L4H1 (antibody, V domains shown)
VH: B1 VH with E1Q, M48I, F69M, T92V
VL: B2 VL
notes: Whole humanized mAb expressed in 293 cells; detected with anti-human IgG; also called 抗人PD-L1人源化抗体176L4H1
On to B4, for which the binding result with 重组人PD-L2蛋白, with 重组人PD-1蛋白(自产), with 重组人ICOS蛋白, with 重组人ICOSLG蛋白, with 重组人CD276蛋白 and in the assay with 重组人CD86蛋白 was “no binding (tested: 10μg/ml)” throughout. Further, the binding result is listed as “no binding (tested: 10μg/ml)” with 重组人CD28蛋白, “no binding (tested: 10μg/ml)” with 重组人CTLA-4蛋白 and “no binding (tested: 20μg/ml)” with 小鼠PD-L1 (on CHO cells). Moreover, the EC50 in the assay with 人PD-L1 (on cells) was ~200 pM. In the assay with hPD-L1-his, this molecule returned a Kd of 8.4 pM.

B5: 176L5H2 (antibody, V domains shown)
VH: B1 VH with E1Q, G44K, M48I, F69M, T92V
VL: B2 VL with D1E, Q3V, M4L
notes: Whole humanized mAb expressed in 293 cells; detected with anti-human IgG; also called 抗人PD-L1人源化抗体176L5H2
Take B5: the binding result with 重组人PD-L2蛋白, in the assay with 重组人PD-1蛋白(自产), with 重组人ICOS蛋白, in the assay with 重组人ICOSLG蛋白, with 重组人CD276蛋白 and with 重组人CD86蛋白 was “no binding (tested: 10μg/ml)” each time. For the same molecule, the binding result was “no binding (tested: 10μg/ml)” with 重组人CD28蛋白, “no binding (tested: 10μg/ml)” with 重组人CTLA-4蛋白 and “no binding (tested: 20μg/ml)” with 小鼠PD-L1 (on CHO cells). In addition, the EC50 with 人PD-L1 (on cells) is ~200 pM. This molecule also showed a Kd with hPD-L1-his of 109 pM.

B6: 176L4H4 (antibody, V domains shown)
VH: B1 VH with E1Q, A23S, G44K, T92V
VL: B2 VL
notes: Whole humanized mAb expressed in 293 cells; detected with anti-human IgG; also called 抗人PD-L1人源化抗体176L4H4
As for B6, the binding result in the assay with 重组人PD-L2蛋白, in the assay with 重组人PD-1蛋白(自产), with 重组人ICOS蛋白, with 重组人ICOSLG蛋白, with 重组人CD276蛋白 and in the assay with 重组人CD86蛋白 was “no binding (tested: 10μg/ml)” in each case. Also, the binding result with 重组人CD28蛋白 was “no binding (tested: 10μg/ml)”; in the assay with 重组人CTLA-4蛋白, “no binding (tested: 10μg/ml)”; in the assay with 小鼠PD-L1 (on CHO cells), “no binding (tested: 20μg/ml)”. Further, the EC50 in the assay with 人PD-L1 (on cells) was ~200 pM. The Kd with hPD-L1-his is 88.1 pM.

As usually defined, the EC50 is the concentration at which the effect is half-maximal. A word on the Kd: it is the free concentration of one partner at which half of the binding sites on the other are occupied at equilibrium, for simple one-to-one binding. Lower therefore signals a tighter complex.

The record behind these values is patent CN116178545A (GUANGDONG FEIPENG PHARMACEUTICAL CO LTD, dated 2023).
